Data reported in patent US20200231674A1 (published 2020).

Molecular target: T1, human CD8 alpha (on transfected HEK293T cells) (human, UniProt P01732 22-235)
T1 construct: whole, on cells
Assay: FACS on HEK293-T cells transfected with human CD8a (Example 2, FIG. 4)
Protocol: The binding characteristics of various VHHs (as described in Example 1) were tested by flow cytometry. HEK293-T cells were transfected with a human CD8a expression plasmid and stained with the His-tagged VHHs at […], followed by staining with an anti-His Fitc conjugated antibody. Binding was measured by detecting cellular fluorescence via flow cytometry.

T1 sequence (P01732 22-235): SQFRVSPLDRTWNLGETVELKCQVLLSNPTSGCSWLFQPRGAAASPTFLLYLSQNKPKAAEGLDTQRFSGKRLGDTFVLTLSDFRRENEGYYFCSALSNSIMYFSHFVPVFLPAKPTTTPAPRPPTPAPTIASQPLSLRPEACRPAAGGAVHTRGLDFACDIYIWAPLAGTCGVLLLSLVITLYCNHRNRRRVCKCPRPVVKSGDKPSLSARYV

- binding result: binds
B1: 2CDA 74 (VHH)
VHH: QVQLQESGGGLVQAGGSLRLSCAVSGFTFDNYAIGWFRQAPGKEREGVSCISRSDGSTYYADSVRGRFTISSDNAKNTVYLQMNSLKPEDTAVYYCAAETSADSGEFRFGWVLKPSLYDYWGQGTQVTVSS
notes: entry carries AAA-HA-His6 tail (pMECS format); free cysteine in CDR2 at position 50
